Laboratory results published in publication PMC10908796, “RTF2 controls replication repriming and ribonucleotide excision at the replisome” (Nature Communications, 2024).

B1: recombinant hRTF2 (natural protein, human, UniProt Q9BY42 1-306, looked up)
chain: MGCDGGTIPKRHELVKGPKKVEKVDKDAELVAQWNYCTLSQEILRRPIVACELGRLYNKDAVIEFLLDKSAEKALGKAASHIKSIKNVTELKLSDNPAWEGDKGNTKGDKHDDLQRARFICPVVGLEMNGRHRFCFLRCCGCVFSERALKEIKAEVCHTCGAAFQEDDVIMLNGTKEDVDVLKTRMEERRLRAKLEKKTKKPKAAESVSKPDVSEEAPGPSKVKTGKPEEASLDSREKKTNLAPKSTAMNESSSGKAGKPPCGATKRSIADSEESEAYKSLFTTHSSAKRSKEESAHWVTHTSYCF
notes: Replication Termination Factor 2 (RTF2), human (hRTF2); source: E. coli, purified (IMAC, then AKTA FPLC)
B2: recombinant GFP-tagged RTF2 (natural protein, human, UniProt Q9BY42 1-306, looked up)
chain: MGCDGGTIPKRHELVKGPKKVEKVDKDAELVAQWNYCTLSQEILRRPIVACELGRLYNKDAVIEFLLDKSAEKALGKAASHIKSIKNVTELKLSDNPAWEGDKGNTKGDKHDDLQRARFICPVVGLEMNGRHRFCFLRCCGCVFSERALKEIKAEVCHTCGAAFQEDDVIMLNGTKEDVDVLKTRMEERRLRAKLEKKTKKPKAAESVSKPDVSEEAPGPSKVKTGKPEEASLDSREKKTNLAPKSTAMNESSSGKAGKPPCGATKRSIADSEESEAYKSLFTTHSSAKRSKEESAHWVTHTSYCF
notes: Replication Termination Factor 2 (RTF2), human (hRTF2 in the methods on recombinant proteins); also called GFP-RTF2; source: E. coli, purified

Legend:
[1] = molecular target: T1, recombinant RNase H2 complex (hRNASEH2BCA) (human, UniProt Q5TBB1 1-312; Q8TDP1 1-164; O75792 1-299); experiment: co-IP; recombinant RNase H2 complex and RTF2 (0.5, 1, 2, 4 pmol) from E. coli mixed 2 hr at 4 °C in 20 mM HEPES pH 7.5, 1 mM DTT, 0.01% NP-40, 5% glycerol, 0.1 mg/mL BSA, 50 mM NaCl, benzonase; NaCl raised to 150 mM; Dynabeads 1 hr at 4 °C; immunoblot; conditions: both partners purified
T1 construct: RNASEH2B, human, non-catalytic accessory subunit of RNase H2; RNASEH2C, human, non-catalytic accessory subunit of RNase H2; RNASEH2A, human, catalytic subunit of RNase H2; Heterotrimer formed beforehand by co-expression; also called RH2; source: E. coli, purified (GST pulldown, then AKTA FPLC); copies: + +
T1 sequence (looked up) 1: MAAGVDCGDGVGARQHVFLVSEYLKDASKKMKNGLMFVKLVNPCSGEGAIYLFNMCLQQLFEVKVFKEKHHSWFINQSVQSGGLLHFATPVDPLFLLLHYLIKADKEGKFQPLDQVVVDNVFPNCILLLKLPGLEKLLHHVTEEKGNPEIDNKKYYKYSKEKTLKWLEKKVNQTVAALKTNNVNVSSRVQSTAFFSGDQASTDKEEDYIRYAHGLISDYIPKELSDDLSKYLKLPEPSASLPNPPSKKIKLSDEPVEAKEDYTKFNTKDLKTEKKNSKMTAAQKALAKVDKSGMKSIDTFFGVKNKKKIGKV
T1 sequence (looked up) 2: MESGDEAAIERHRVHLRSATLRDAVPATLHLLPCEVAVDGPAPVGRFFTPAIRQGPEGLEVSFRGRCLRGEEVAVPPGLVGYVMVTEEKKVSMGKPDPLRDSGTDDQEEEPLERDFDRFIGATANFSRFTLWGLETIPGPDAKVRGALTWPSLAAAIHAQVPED
T1 sequence (looked up) 3: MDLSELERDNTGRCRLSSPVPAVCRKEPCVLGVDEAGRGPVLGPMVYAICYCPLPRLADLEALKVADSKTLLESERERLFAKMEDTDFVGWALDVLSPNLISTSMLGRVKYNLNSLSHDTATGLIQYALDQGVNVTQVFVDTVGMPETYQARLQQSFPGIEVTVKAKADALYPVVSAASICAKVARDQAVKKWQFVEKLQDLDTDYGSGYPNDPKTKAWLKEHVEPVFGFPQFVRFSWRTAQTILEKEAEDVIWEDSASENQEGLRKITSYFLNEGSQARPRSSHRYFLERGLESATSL

[2] = molecular target: T1, recombinant RNase H2 complex …; experiment: co-IP; recombinant GFP-tagged RTF2 (0.5, 1, 2, 4 pmol) and RNase H2 complex from E. coli, immunoprecipitation as for untagged RTF2 (20 mM HEPES pH 7.5, 150 mM NaCl final, benzonase, Dynabeads); immunoblot; conditions: both partners purified

Row | Binder | binding result [1] | binding result [2]
1 | B1 | binds | 
2 | B2 |  | binds
